Like-named read-outs stand apart in the source and are kept apart here. Values belong to the binder of their own block, whether it stands above or below them.
Tests used:
Experiment in all cases: two-hybrid library CCmax;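 note: natural log of median RNA to DNA barcode read ratio; higher means stronger binding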
4H1636-AA = molecular target: T1, 4H1636-AA; details: mean of both orientations
T1 chain: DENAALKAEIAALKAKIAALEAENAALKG

4H2078-AA = molecular target: T2, 4H2078-AA; details: mean of both orientations
T2 chain: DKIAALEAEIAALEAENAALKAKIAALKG

4H2151-AA = molecular target: T3, 4H2151-AA; details: mean of both orientations
T3 chain: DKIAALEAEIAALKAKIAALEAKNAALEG

4H_APH4 = molecular target: T4, 4H_APH4
T4 chain: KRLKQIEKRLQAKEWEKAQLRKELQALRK

AP3-AA = molecular target: T5, AP3-AA; details: mean of both orientations
T5 chain: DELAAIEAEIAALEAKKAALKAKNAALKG

AP4-AA = molecular target: T6, AP4-AA; details: mean of both orientations
T6 chain: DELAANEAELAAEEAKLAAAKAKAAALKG

AP7-AA = molecular target: T7, AP7-AA; details: mean of both orientations
T7 chain: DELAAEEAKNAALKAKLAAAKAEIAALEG

AP8-AA = molecular target: T8, AP8-AA; details: mean of both orientations
T8 chain: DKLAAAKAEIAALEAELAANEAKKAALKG

P1-AA = molecular target: T9, P1-AA; details: mean of both orientations
T9 chain: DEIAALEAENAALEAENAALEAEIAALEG

P3-AA = molecular target: T10, P3-AA; details: mean of both orientations
T10 chain: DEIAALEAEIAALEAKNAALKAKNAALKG

P7-AA = molecular target: T11, P7-AA; details: mean of both orientations
T11 chain: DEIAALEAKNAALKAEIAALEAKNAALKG

P8-AA = molecular target: T12, P8-AA; details: mean of both orientations
T12 chain: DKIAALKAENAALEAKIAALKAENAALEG

zCON9_A = molecular target: T13, zCON9_A
T13 chain: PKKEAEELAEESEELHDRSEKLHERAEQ

zCON9_B = molecular target: T14, zCON9_B; details: mean of both orientations
T14 chain: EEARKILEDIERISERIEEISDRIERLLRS

4H3493-AA = molecular target: T15, 4H3493-AA
T15 chain: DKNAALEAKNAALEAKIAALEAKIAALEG

4H688-AA = molecular target: T16, 4H688-AA; details: mean of both orientations
T16 chain: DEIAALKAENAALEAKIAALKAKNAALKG

4H963-AA = molecular target: T17, 4H963-AA; details: mean of both orientations
T17 chain: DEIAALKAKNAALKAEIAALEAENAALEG

4H1153-AA = molecular target: T18, 4H1153-AA
T18 chain: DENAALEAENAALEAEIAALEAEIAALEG

4H2575-AA = molecular target: T19, 4H2575-AA
T19 chain: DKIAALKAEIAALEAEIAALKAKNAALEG

4H3921-AA = molecular target: T20, 4H3921-AA; details: mean of both orientations
T20 chain: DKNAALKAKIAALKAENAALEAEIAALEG

O5-AA = molecular target: T21, O5-AA; details: mean of both orientations
T21 chain: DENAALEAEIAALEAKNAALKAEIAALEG

4H1257-AA = molecular target: T22, 4H1257-AA
T22 chain: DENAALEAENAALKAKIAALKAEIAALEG

4H130-AA = molecular target: T23, 4H130-AA; details: mean of both orientations
T23 chain: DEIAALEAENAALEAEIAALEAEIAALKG

4H1349-AA = molecular target: T24, 4H1349-AA; details: mean of both orientations
T24 chain: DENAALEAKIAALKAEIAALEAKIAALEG

4H1360-AA = molecular target: T25, 4H1360-AA; details: mean of both orientations
T25 chain: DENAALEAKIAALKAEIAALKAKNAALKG

4H1558-AA = molecular target: T26, 4H1558-AA; details: mean of both orientations
T26 chain: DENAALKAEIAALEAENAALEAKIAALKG

4H4001-AA = molecular target: T27, 4H4001-AA; details: mean of both orientations
T27 chain: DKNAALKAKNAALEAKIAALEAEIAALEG

4H568-AA = molecular target: T28, 4H568-AA; details: mean of both orientations
T28 chain: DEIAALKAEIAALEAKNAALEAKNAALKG

4H687-AA = molecular target: T29, 4H687-AA; details: mean of both orientations
T29 chain: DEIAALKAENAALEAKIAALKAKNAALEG

4H883-AA = molecular target: T30, 4H883-AA
T30 chain: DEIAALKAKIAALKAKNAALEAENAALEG

4H918-AA = molecular target: T31, 4H918-AA; details: mean of both orientations
T31 chain: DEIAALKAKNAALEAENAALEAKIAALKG

4H953-AA = molecular target: T32, 4H953-AA; details: mean of both orientations
T32 chain: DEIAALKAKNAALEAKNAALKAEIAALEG

4H967-AA = molecular target: T33, 4H967-AA; details: mean of both orientations
T33 chain: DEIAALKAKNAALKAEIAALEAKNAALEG

4H2622-AA = molecular target: T34, 4H2622-AA; details: mean of both orientations
T34 chain: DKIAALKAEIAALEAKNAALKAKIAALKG

4H2705-AA = molecular target: T35, 4H2705-AA; details: mean of both orientations
T35 chain: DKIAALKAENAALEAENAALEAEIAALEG

4H2736-AA = molecular target: T36, 4H2736-AA; details: mean of both orientations
T36 chain: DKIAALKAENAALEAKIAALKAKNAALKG

4H2888-AA = molecular target: T37, 4H2888-AA; details: mean of both orientations
T37 chain: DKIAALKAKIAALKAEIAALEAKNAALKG

4H337-AA = molecular target: T38, 4H337-AA; details: mean of both orientations
T38 chain: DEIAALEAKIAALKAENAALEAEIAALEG

4H3587-AA = molecular target: T39, 4H3587-AA; details: mean of both orientations
T39 chain: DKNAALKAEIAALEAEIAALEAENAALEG

4H3625-AA = molecular target: T40, 4H3625-AA; details: mean of both orientations
T40 chain: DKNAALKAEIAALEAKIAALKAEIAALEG

4H43-AA = molecular target: T41, 4H43-AA; details: mean of both orientations
T41 chain: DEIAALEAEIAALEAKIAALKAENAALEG

4H451-AA = molecular target: T42, 4H451-AA
T42 chain: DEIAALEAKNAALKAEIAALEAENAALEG

4H510-AA = molecular target: T43, 4H510-AA; details: mean of both orientations
T43 chain: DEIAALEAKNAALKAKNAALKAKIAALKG

interaction score (4H1636-AA): -1.81
interaction score (4H2078-AA): 1.93
interaction score (4H2151-AA): -1.5
interaction score (4H_APH4): -1.85
interaction score (AP3-AA): -0.918
interaction score (AP4-AA): -1.22
interaction score (AP7-AA): -1.37
interaction score (AP8-AA): -0.198
interaction score (P1-AA): -0.911
interaction score (P3-AA): -1.1
interaction score (P7-AA): -1.39
interaction score (P8-AA): 0.854
interaction score (zCON9_A): -1.95
interaction score (zCON9_B): -0.316
Binder: DENAALEAKIAALKAKNAALKAEIAALEG [4H1401-AA]

interaction score (4H3493-AA; mean of both orientations): -1.45
interaction score (4H688-AA): -1.19
interaction score (4H963-AA): -1.46
Binder: DENAALKAEIAALKAENAALKAEIAALKG [4H1626-AA]

interaction score (4H1153-AA; mean of both orientations): -1.39
Binder: DENAALEAEIAALKAKNAALEAKIAALKG [4H1142-AA]

interaction score (4H2575-AA; mean of both orientations): -1.19
interaction score (4H3921-AA): -1.58
Binder: DKIAALEAEIAALKAKNAALEAKIAALEG [4H2165-AA]

interaction score (O5-AA): -0.0194
Binder: DEIAALEAENAALEAKIAALKAENAALEG [4H171-AA]

interaction score (4H1257-AA): 0.41
interaction score (4H130-AA): 1.9
interaction score (4H1349-AA): 0.365
interaction score (4H1360-AA): -0.666
interaction score (4H1558-AA): -0.232
interaction score (4H4001-AA): -0.973
interaction score (4H568-AA): -0.953
interaction score (4H687-AA): -1.24
interaction score (4H883-AA): -1.67
interaction score (4H918-AA): -1.05
interaction score (4H953-AA): -1.45
interaction score (4H967-AA): -0.389
Binder: DENAALEAENAALKAKIAALKAEIAALEG [4H1257-AA]

interaction score (4H2622-AA): 1.24
interaction score (4H2705-AA): -1.8
interaction score (4H2736-AA): -0.116
interaction score (4H2888-AA): 1.96
interaction score (4H337-AA): 0.173
interaction score (4H3587-AA): 1.58
interaction score (4H3625-AA): 1.76
interaction score (4H43-AA): 1.97
interaction score (4H451-AA): -1.11
interaction score (4H510-AA): -1.54
Binder: DENAALEAKIAALKAKIAALKAEIAALEG [4H1385-AA]

interaction score (4H1257-AA; mean of both orientations): 0.616
interaction score (4H130-AA): -0.874
interaction score (4H1349-AA): 0.539
interaction score (4H1360-AA): 0.702
interaction score (4H1558-AA): -1.61
Binder: DENAALEAEIAALEAKIAALEAKNAALKG [4H1064-AA]

interaction score (4H_APH4): -1.64
interaction score (AP3-AA): -1.06
interaction score (AP4-AA): -1.63
interaction score (AP7-AA): -1.35
interaction score (AP8-AA): -1.43
interaction score (O5-AA): 2.23
interaction score (P1-AA): -1.64
interaction score (P3-AA): -0.421
interaction score (P7-AA): 1.24
interaction score (P8-AA): -0.645
interaction score (zCON9_A): -1.36
interaction score (zCON9_B): -0.854
Binder: DKNAALKAEIAALEAENAALEAKIAALKG [4H3606-AA]

interaction score (4H1153-AA): -1.43
interaction score (4H1636-AA): -1.31
interaction score (4H2078-AA): -0.975
interaction score (4H2151-AA): -1.21
interaction score (4H2575-AA): -0.264
interaction score (4H3921-AA): -1.87
Binder: DENAALEAENAALEAEIAALEAEIAALEG [4H1153-AA]

interaction score (4H4001-AA): -1.9
interaction score (4H568-AA): -1.18
interaction score (4H687-AA): -1.51
interaction score (4H883-AA; mean of both orientations): -1.57
interaction score (4H918-AA): -1
interaction score (4H953-AA): -1.52
interaction score (4H967-AA): -1.65
Binder: DENAALKAKIAALEAKNAALEAKIAALEG [4H1845-AA]

interaction score (4H3493-AA): -1.67
interaction score (4H688-AA): 0.32
interaction score (4H963-AA): -1.65
Binder: DEIAALEAENAALKAKNAALKAEIAALEG [4H249-AA]

interaction score (4H2622-AA): 1.12
interaction score (4H2705-AA): -1.8
interaction score (4H2736-AA): -1.22
interaction score (4H2888-AA): 2.21
interaction score (4H337-AA): 1.52
interaction score (4H3587-AA): 1.39
interaction score (4H3625-AA): 1.97
interaction score (4H43-AA): 2.09
interaction score (4H451-AA; mean of both orientations): 0.115
interaction score (4H510-AA): -1.17
Binder: DENAALEAKIAALKAEIAALEAKIAALKG [4H1350-AA]

— publication PMC10397247
